Results as given in IntAct's records for PubMed 21526221.

B1: SWI5-dependent HO expression protein 3 (Saccharomyces cerevisiae), P38272 (parent)
chain: MSDQDNTQTSSSKLAPHHNIFMANLESSPTKDRNTSSQNASSSRVIESLHDQIDMLTKTNLQLTTQSQNLLSKLELAQSKESKLLENLNLLKNENENLNSIFERKNKKLKELEKDYSELSNRYNEQKEKMDQLSKLAKNSSAIEQSCSEKLQNMEVNYNSLLESQNLYRDHYSDEISKLNEKIGLLELELSNQNLNYGSDTSSNSDIELNLNKFNDSVKDLKSLETEKDSKLSKIITHSLDELNLQSWLNLYQTNENLISTFAEKMDLKDVLKRNDEKISNKGAVVQTLKKNVQTQVESNNADALSSNNAQDMLPIKMVKLRKTPNTNDSSSNGNSSNNKRRSFYTASPLLSSGSIPKSASPVLPGVKRTASVRKPSSSSSKTNVTHNNDPSTSPTISVPPGVTRTVSSTHKKKGNSMVVHGAQS

Variants of: B1
Conditions: with she2_yeast SHE2, P36068
she2_yeast SHE2, P36068, sequence (P36068 whole entry): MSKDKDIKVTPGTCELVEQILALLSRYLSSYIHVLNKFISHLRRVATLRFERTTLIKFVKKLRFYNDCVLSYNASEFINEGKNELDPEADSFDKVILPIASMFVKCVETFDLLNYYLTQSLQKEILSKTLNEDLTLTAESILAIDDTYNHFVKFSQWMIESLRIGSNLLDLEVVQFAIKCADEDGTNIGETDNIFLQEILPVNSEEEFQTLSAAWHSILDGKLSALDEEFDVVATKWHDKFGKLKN

effect of a mutation on the interaction | Variant
disrupting interaction | L364A;V367A
